How the values were obtained:
[1] = target: T1, Recombinant human VEGFA (Sino Biological, catalog number 11066-HNAB) (human); test: cell-based or functional assay
T1 chain: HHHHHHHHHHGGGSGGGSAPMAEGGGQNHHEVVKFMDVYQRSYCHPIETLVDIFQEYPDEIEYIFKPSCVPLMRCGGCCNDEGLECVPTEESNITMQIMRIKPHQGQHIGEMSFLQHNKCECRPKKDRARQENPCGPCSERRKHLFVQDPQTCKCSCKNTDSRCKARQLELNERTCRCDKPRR

[2] = target: Human PD-1 on the cell surface (Jurkat PD-1 effector cells, Promega); CD4 T cells in the mixed lymphocyte … (human, UniProt Q15116 25-288); test: cell-based or functional assay
[3] = target: T1, Recombinant human VEGFA (Sino …); test: BLI (Octet RED96e), told of the group
[4] = target: T2, Recombinant human PD-1 (prepared by Suzhou Junmeng Biopharm Co., Ltd. according to the sequence of NCBI … (human, UniProt Q15116 25-170, limits assumed)); test: indirect ELISA, human PD-1 coated at 0.3 µg/mL (FIG. 6b)
T2 construct: Soluble recombinant protein used in BLI and coated in ELISA; also called antigen PD-1

[5] = target: T1, Recombinant human VEGFA (Sino …); test: indirect ELISA, human VEGFA coated at 0.5 µg/mL (FIG. 7b)
[6] = target: T1, Recombinant human VEGFA (Sino …); test: indirect ELISA on coated human VEGFA, relative to Avastin control
[7] = target: T1, Recombinant human VEGFA (Sino …); test: BLI (Octet), antibody captured at 5 µg/mL, VEGFA at 25 and 12.5 nM
[8] = target: T2, Recombinant human PD-1 (prepared by …); test: BLI (Octet RED96e), antibody captured at 5 µg/mL, PD-1 at 210 and 70 nM
[9] = target: T2, Recombinant human PD-1 (prepared by …); test: indirect ELISA on coated human PD-1, relative to TAB001 (JS001) control
[10] = target: T1, Recombinant human VEGFA (Sino …); test: competitive ELISA against VEGFR2 on coated VEGFA, relative to Avastin control
[11] = target: T2, Recombinant human PD-1 (prepared by …); test: competitive ELISA, PD-1 coated, competitor Biotin-PD-L1 hFc at 4.0 µg/mL (FIG. 9b)
[12] = target: T1, Recombinant human VEGFA (Sino …); test: competitive ELISA, VEGFA coated, competitor biotinylated VEGFR2 at 0.3 µg/mL (FIG. 8b)
[13] = target: T2, Recombinant human PD-1 (prepared by …); test: competitive ELISA against PD-L1 hFc on coated PD-1, relative to TAB001 (JS001) control

IC50, VEGFA-induced proliferation of HUVEC cells [1]: 150 nM
EC50, PD-1/PD-L1 luciferase reporter gene system (Jurkat PD-1 / CHO PD-L1) [2]: 26.1 nM
Kd [3]: < 0.5 nM
EC50 [4]: 59.5 nM
EC50 [5]: 6.17 nM
Relative binding activity (%) [6]: 57%
Kd [7]: 0.0147 nM
koff [7]: 1.88e-05 s⁻¹
kon [7]: 1.28e+06 M⁻¹ s⁻¹
Kd [8]: 1.67 nM
koff [8]: 5.96e-05 s⁻¹
kon [8]: 35800 M⁻¹ s⁻¹
Relative binding activity (%) [9]: 31%
Relative binding activity (%) [10]: 163%
IC50 [11]: 573 nM
IC50 [12]: 1860 nM
Relative binding activity (%) [13]: 45%
B1: Bispecific antibody molecule 28 (bispecific antibody, human IgG4 S228P, kappa)
light: EVQLVESGGGLVQPGGSLRLSCAISGFSLAATDIDWVRQAPGKGLEWVARIFSPSDFTDYADSVKGRFTISADTSKNTVYLQMNSLRAEDTAVYYCGRPDTYAYNIFLDTPTYNALHYRGQGTLVTVSSGGGGSGGGGSGGGGSDVVMTQSPLSLPVTLGQPASISCRSSQSIVHSNGNTYLEWYLQKPGQSPQLLIYKVSNRFSGVPDRFSGSGSGTDFTLKISRVEAEDVGVYYCFQGSHVPLTFGQGTKLEIKRTVAAPSVFIFPPSDEQLKSGTASVVCLLNNFYPREAKVQWKVDNALQSGNSQESVTEQDSKDSTYSLSSTLTLSKADYEKHKVYACEVTHQGLSSPVTKSFNRGEC
heavy: not shown
notes: Anti-PD-1 IgG4 (JS001) with the anti-VEGF VHH at the N-terminus of each light chain; also called Antibody 28; antibody 28 (IgG4)
